{"source": "patent US20250222126A1", "about": "(ARIZONA BOARD OF REGENTS ON BEHALF OF ARIZONA STATE …, published 2025)", "target": "spike wt", "data": [{"binder": "Tri-pdbody (designed binder, also called 3-Arm; 3arm) LCB1 mini-binder coupled to a DNA handle that is hybridised to an arm of a 3-helix-bundle DNA nanostructure: DKEWILQKIYEIMRLLDELGHAEASMRVSDLIYEFMKKGDERLLEEAERLLEEVER", "values": [{"measurement": "Kd", "value": 132, "unit": "pM"}]}]}
